According to US6689596B2, “High level expression of human cyclooxygenase-2” (Merck & Co., Inc., priority 1992, dated 2004):

Tested on: osteosarcoma 143 cells
Assay: PGE2 synthesis by osteosarcoma 143 cells in response to arachidonic acid after treatment with growth factors/cytokines
Format: cell-based, human
Details: within a 3-hour period, 1% serum, relative to cells grown in the absence of these factors

B1: IL1-α: human recombinant IL1-α (R and D systems Inc.) (protein, UniProt P01583 113-271, looked up)
Interleukin-1 alpha: SAPFSFLSNVKYNFMRIIKYEFILNDALNQSIIRANDQYLTAAALHNLDEAVKFDMGAYKSSKDDAKITVILRISKTQLYVTAQDEDQPVLLKEMPEIPKTITGSETNLLFFWETHGTKNYFTSVAHPNLFIATKQDYWVCLAGGPPSITDFQILENQA
levels of PGE2 synthesis by osteosarcoma 143 cells in response to arachidonic acid (10 pg/ml): increased

B2: EGF: human EGF (CALBIOCHEM) (protein, UniProt P01133 23-1207, looked up)
Pro-epidermal growth factor: PQHWSCPEGTLAGNGNSTCVGPAPFLIFSHGNSIFRIDTEGTNYEQLVVDAGVSVIMDFHYNEKRIYWVDLERQLLQRVFLNGSRQERVCNIEKNVSGMAINWINEEVIWSNQQEGIITVTDMKGNNSHILLSALKYPANVAVDPVERFIFWSSEVAGSLYRADLDGVGVKALLETSEKITAVSLDVLDKRLFWIQYNREGSNSLICSCDYDGGSVHISKHPTQHNLFAMSLFGDRIFYSTWKMKTIWIANKHTGKDMVRINLHSSFVPLGELKVVHPLAQPKAEDDTWEPEQKLCKLRKGNCSSTVCGQDLQSHLCMCAEGYALSRDRKYCEDVNECAFWNHGCTLGCKNTPGSYYCTCPVGFVLLPDGKRCHQLVSCPRNVSECSHDCVLTSEGPLCFCPEGSVLERDGKTCSGCSSPDNGGCSQLCVPLSPVSWECDCFPGYDLQLDEKSCAASGPQPFLLFANSQDIRHMHFDGTDYGTLLSQQMGMVYALDHDPVENKIYFAHTALKWIERANMDGSQRERLIEEGVDVPEGLAVDWIGRRFYWTDRGKSLIGRSDLNGKRSKIITKENISQPRGIAVHPMAKRLFWTDTGINPRIESSSLQGLGRLVIASSDLIWPSGITIDFLTDKLYWCDAKQSVIEMANLDGSKRRRLTQNDVGHPFAVAVFEDYVWFSDWAMPSVMRVNKRTGKDRVRLQGSMLKPSSLVVVHPLAKPGADPCLYQNGGCEHICKKRLGTAWCSCREGFMKASDGKTCLALDGHQLLAGGEVDLKNQVTPLDILSKTRVSEDNITESQHMLVAEIMVSDQDDCAPVGCSMYARCISEGEDATCQCLKGFAGDGKLCSDIDECEMGVPVCPPASSKCINTEGGYVCRCSEGYQGDGIHCLDIDECQLGEHSCGENASCTNTEGGYTCMCAGRLSEPGLICPDSTPPPHLREDDHHYSVRNSDSECPLSHDGYCLHDGVCMYIEALDKYACNCVVGYIGERCQYRDLKWWELRHAGHGQQQKVIVVAVCVVVLVMLLLLSLWGAHYYRTQKLLSKNPKNPYEESSRDVRSRRPADTEDGMSSCPQPWFVVIKEHQDLKNGGQPVAGEDGQAADGSMQPTSWRQEPQLCGMGTEQGCWIPVSSDKGSCPQVMERSFHMPSYGTQTLEGGVEKPHSLLSANPLWQQRALDPPHQMELTQ
modifications: Pro-epidermal growth factor
levels of PGE2 synthesis by osteosarcoma 143 cells in response to arachidonic acid (15 ng/ml): increased
